Reference: the domain aggregation screens of Martell et al. (2025)

Experiment: soluble fraction after stress (log2 fold change); higher = more stays soluble; pooled small domains, quantitative proteomics
Conditions: stress: 50 degC
Procedure, shortened: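 The stress applied to every library was 50°C. These custom libraries of small protein domains were pooled and measured at high throughput with quantitative proteomics as the read-out. Aggregation propensity is expressed as the base-two logarithm of the fold change in how much of each protein remains soluble. The higher the value, the more of that protein stays in solution.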

Row | Sequence | soluble fraction (log2)
1 | HMVAISNTSGLAGVAYWIQSNIPKGIDIRKDNPGIVTIKNWIDEEYRKGRTTTISEEEMFKLVREYMPEL | -1.77
2 | HMRGYGDRIRILRERAGITIEQLAERLGVAPYFIRRTELSEVYPTKPYIEALADVLNIDASYLARHI | -1.81
3 | HMLIIDLPDFTNKKLSELQQWADANQITLKIVEKDVSSKPYDTILEQTPAKNKYEKIVKGSTMTVTVNIK | -0.562
4 | HMKRRSLQVGDIVQVRSLNVKGEVVSIGKNEVVVAVGRLQMRAGFDDLDFKERPKEEREVESV | -0.143
5 | HMVWPETEAIVTEDFIGKKRSEVQQEGVIFEFFGEGDMVIDQLPRGGVTLNESGRVWIYLGEDTF | -0.423
6 | HMAEVDDESIKLYDGGYQSNTTKSRLNALLSEFGYDTEHVFQKQFEWFISIFDLTEKAMRTVPFSNGMRL | -0.0834
7 | HMTYSEEEIERDLYVRGTLYQIGDLVENKIDGTSGEIVRRGPNYVQYSDGENFYKAFLHSIQEV | -0.106
8 | HMNSNLSLTSYEEKIFFLLEKEKNLDELILESSFKAGEILSILMDLEIKHAIVSIPGGKYRRK | -2.84
9 | HMEDNKLKNEIKNELVSHLEKPYSVEDLADALKYHGSAAFKLIVQELAILERERAVVVTHDGNFKINSS | -0.619
10 | HMAMKFQDIVRQKRKELGLTQEQAARRLGVSPAAVSKWESGQSLPDTPLFAPLARLLHTDLNTLLSFE | -0.732
11 | HMVTDVDELEKLIQKVLDSNSSQVDEYRQGKEKVFGFFVGAVMKLTKGQADPDVVNQLLKEKLSGRK | 0.195
12 | HMHDLGEQIIEKLRASGGISTLTDKSDPDAIYRQFKVSKKKYKQALGTLYKSRRITLAPNQIKLA | -0.129
13 | HMSEVPVLVAKTDIKELELIDDRKVTLINVPQKFKMPGSFNSPEEVYNTIAAVPIKEGEQITKPRVTWP | 0.134
14 | HMAKINFTSDAIDIGMVTRNDIEMLSFYQNVLGLTKDMEIPFPGLGVVNKLSFGSGFIKILVL | -0.0122
15 | HMQLDLNENEKIIFEILQNNKTMQLSNLKTQTELSNKGWDKAIKSLTKQGLAKVSKIDNELIVEFL | -0.249
16 | HMFPDLTEDEQLIVDVLQRTGDLQINSLIVEANIPVNKMSEILFELEMKGVIRTLAGGVYQLL | -1.46
17 | HMRRTEKEIEQDVMRAIATIISEKGISSVTIKEVSNLSKTDVIVLERRFKNDEGLIKAYTSQ | -0.166
18 | HMRILGIDPGYAITGYSIIDYVGNKFKLIDSGAVLTKAGVSFPLRLTKIYDDLSMIIDEYKPDA | -0.207
19 | HMIDVGSKIRSLRKSKNISISTLAKNSDLSTGLISQIERNMVVPSIVAMWKISKALDINIGYFFE | -2.42

Row | Sequence | soluble fraction (log2)
20 | HMVISAKRMQDRRDSILDAAREAFARAGFEGTSIADIARRAGVSDGLVYRYFASKRDLLNAVLTA | -0.83
21 | HMPRTEILMVDEEMEGERLDAFVAEQLDELSRSLVKTLIENGEIRVDGKQQKPSYRLKAGEEIIVEIPA | 0.208
22 | HMEPVFSDPARQTLYQEVMELPAKYRVPLYLYYYEGYKVDEVGELLGLNASTVQTRLARARAKLKIQL | -0.627
23 | HMKGKDLQDAVVTVVGGAENWNAIRAWAQASASDSEKREINAAFQSGKLMATMMAERLALAYQQSG | -0.0897
24 | HMADFYEVLGVERNASSDQIKRAYRKLARELHPDVNLDPVAQNRFKEVTEAYEVLSDPNKRSNFDRG | 0.209
25 | HMGQKETIVDLLKTNGTMTQLALAEAIYGDKNHGPNIYSVLMGRVNSGAVLRTGSQPAYYSLSG | 0.0821
26 | HMVTDVDYSTFLSQVEEGKVESVTIEDGEILFKGKDENGEARWYITGEMNDPNLVERLKDKVPSFNAPA | 0.0853
27 | HMTELPLTPRSKRILEMSALEARRLNHSYIGTEHLLMAIIRDGDGVAAKILESLGVNLPNFYTDTVRSIE | -0.121
28 | HMSGFFVYPNPAKSNIIHFPNKKSFYIYDTSGRLLIEGKGKDFIDVSTLDRGVYLLKTFENDIVKIII | -1.25
29 | HMSNPADDVVDLLRQLRLPHMRAAAPELLATAKAQRWDPAEAIRALLTEELAGRQASSINARRK | -0.406
30 | HMVSKTEAMAVFIADKLQEGMVPANEILELYKGMQLSDRTIRNAKKQLGIVSIRKDGQWYWSL | -1.19
31 | HMKKGATVSGVIVEKTKKSLIIDLGAKTEGVVADKEFEFAIDFVKELKKGDEVKAIVISTDNDKGQVVLSL | -0.155
32 | HMVPTVSVDRDDTLRFEGRPVDWDVLKRELGAVAGIDELKIYADAKVSALTVSKIMKSASEAGVLQFILVT | -0.188
33 | HMFPQQGEIRQGVIASITPDQILVNVGTKSEGIISGKELEAISKSERDSLNVDQKIAVYILDPEDSNG | 0.259
34 | HMAHKYYSIMRPVSIGTFPDNGTILGIVNFDTRQMVESIGKMAWGYINYGKPLTEKQISDYELVAE | -0.451
35 | HMKNAMTDIYLEEIKKILTKNEFLVYTLRELNNFSVQFITDNYDLSEKTIYNSVYRAKKKIDRHFT | -0.0693
36 | HMAMDVKEVLLPGVGLRYEFDNSDGDRIGVIAKRSGDFEVVRYTAADRDAAQPMFRLTDEEADALAQILGA | 0.0786
37 | HMLKFPIGTHVGKKKPSANLSLPNKHGVVIGHGERRNAKGAIMRFYIVETTHSSRPEEWAPGITYPL | -2.5
38 | HMNPSRPASKEELLGLFEHLERALDAVTFFRPAEKKPVVVQTLRAMLTKASFTEQDIRTMRGVIAALEN | -1.5
